# Measurements published in article PMC4772809, “Network of protein interactions within the Drosophila inner kinetochore” (Open Biology, 2016).
# T1: Nnf1a^122–147 peptide (Drosophila melanogaster, N-terminus acetylated; C-terminus amidated)
# T1 construct: also called Peptide Nnf1; Nnf1a R122-A147; source: synthetic peptide, bought: GenScript
# T1 peptide: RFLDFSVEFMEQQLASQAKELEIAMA
# T2: 6xHis::CENP-C^1–94 (Drosophila melanogaster, UniProt Q9VHP9 1-94)
# T2 construct: also called His-tagged CENP-C 1-94; source: E. coli BL21(DE3)
# T2 sequence (looked up): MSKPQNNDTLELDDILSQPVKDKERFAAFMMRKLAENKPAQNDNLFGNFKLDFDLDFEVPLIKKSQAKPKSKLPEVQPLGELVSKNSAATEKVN
# T3: 6xHis::Nsl1 (Drosophila melanogaster, UniProt Q9VYX4 1-183)
# T3 construct: residues up to 183 are printed; not the NSL-complex protein of the same name; source: E. coli BL21(DE3), co-expressed from Duet vectors (induced overnight); in lysate for Ni-NTA co-purification, then purified (Ni-NTA, SEC)
# T3 sequence (looked up): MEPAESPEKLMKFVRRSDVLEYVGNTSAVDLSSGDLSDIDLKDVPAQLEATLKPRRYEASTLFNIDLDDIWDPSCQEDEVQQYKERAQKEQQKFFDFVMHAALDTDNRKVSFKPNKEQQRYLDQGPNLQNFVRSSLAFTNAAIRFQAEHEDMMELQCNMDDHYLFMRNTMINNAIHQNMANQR
# T4: 6xHis::Nnf1a (Drosophila melanogaster, UniProt Q7JZC9 1-194)
# T4 construct: written 6xHis::Nnf1a; also called polyhistidine (His)-tagged Nnf1a; source: E. coli BL21(DE3), co-expressed from Duet vectors; in lysate for Ni-NTA co-purification, then purified (Ni-NTA, SEC)
# T4 sequence (looked up): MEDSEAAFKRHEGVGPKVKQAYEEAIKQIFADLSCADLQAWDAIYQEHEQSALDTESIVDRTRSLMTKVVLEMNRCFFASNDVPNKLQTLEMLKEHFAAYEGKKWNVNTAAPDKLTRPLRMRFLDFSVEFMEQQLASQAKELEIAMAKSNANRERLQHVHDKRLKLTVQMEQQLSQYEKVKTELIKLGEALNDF
# B1: Mis12^101–130 peptide (peptide)
# peptide: Ac-TSEEEEQKTARLEELKAKYRENMAMLAHLK-NH2
# notes: also called Mis12 peptide; Mis12 T101-K130; source: synthetic peptide, bought: GenScript
# B2: CENP-C^1–94 (untagged, recombinant) (domain or fragment, Drosophila melanogaster, UniProt Q9VHP9 1-94, looked up)
# chain: T2 sequence (looked up)
# notes: also called amino-terminal part of CENP-C (residues 1–94); source: E. coli BL21(DE3), co-expressed from Duet vectors; in lysate for Ni-NTA co-purification, then purified (Ni-NTA, SEC)
# B3: Nnf1a + Mis12 (both untagged) (complex, Drosophila melanogaster)
# chain 1: T4 sequence (looked up)
# chain 2: MDFNSLAYDQKFFNFTAAQLSAEREHIVQDIIKKGIGQIIDKIKTPATAELLEAEKETVERRFQASASKGLKALRELDSKVFHVPPHVLHPEHMFVENQYTSEEEEQKTARLEELKAKYRENMAMLAHLKIEEEKYAAMEDLIQKEIEMQDRVQRSCSSLNITKLKQFWNQVPLQIKKETD
# notes: Nnf1a, as m6; Mis12, as m2; co-purified through a His tag on the third co-expressed protein; also called Mis12–Nnf1a dimer; MN dimer; source: E. coli BL21(DE3), co-expressed from Duet vectors; in lysate for Ni-NTA co-purification, then purified (Ni-NTA, SEC); copies: 1 + 1
# B4: 6xHis::Nnf1a–Mis12 heterodimer (complex, Drosophila melanogaster)
# chain 1: T4 sequence (looked up)
# chain 2: B3 chain 2
# notes: Nnf1a, as m1; Mis12, as m2; 1 : 1 by SEC-MALS; also called MN dimer; MN; source: E. coli BL21(DE3), co-expressed from Duet vectors; in lysate for Ni-NTA co-purification, then purified (Ni-NTA, SEC); copies: 1 + 1
# B5: Mis12 (untagged, recombinant) (natural protein, Drosophila melanogaster, UniProt Q9VS01 1-181, looked up)
# chain: B3 chain 2
# notes: source: E. coli BL21(DE3), co-expressed from Duet vectors; in lysate for Ni-NTA co-purification, then purified (Ni-NTA, SEC)
# Columns and labels:
# [1] = biological target: Mis12–Nnf1a–CENP-C^1–94 complex (Drosophila melanogaster) (UniProt Q9VHP9); assay: SEC-MALS; complexes already collected from SEC, stored at 4 °C in SEC buffer and re-loaded; two elution peaks, masses by MALS
# Nnf1a^122–147 peptide = biological target: T1, Nnf1a^122–147 peptide; assay: circular dichroism; synthetic peptides alone and in equimolar mixture, 0.1 M PBS pH 7.4, 195–270 nm, room temperature; details: both partners purified
# [2] = biological target: B4; assay: SEC-MALS; co-expressed, co-purified complexes on Superdex 200 10/300 at 4 °C, 150 mM NaCl, 10 mM Tris/HCl pH 8.0, in-line MALS and refractometer; details: both partners purified
# 6xHis::CENP-C^1–94 = biological target: T2, 6xHis::CENP-C^1–94; assay: as above; details: both partners purified
# 6xHis::Nsl1 = biological target: T3, 6xHis::Nsl1; assay: as above; details: both partners purified
# [3] = biological target: the molecule itself; assay: SEC-MALS; complexes already collected from SEC, stored at 4 °C in SEC buffer and re-loaded; two elution peaks, masses by MALS
# 6xHis::Nnf1a = biological target: T4, 6xHis::Nnf1a; assay: SEC-MALS; co-expressed, co-purified complexes on Superdex 200 10/300 at 4 °C, 150 mM NaCl, 10 mM Tris/HCl pH 8.0, in-line MALS and refractometer; details: both partners purified
molecule,measurement,setting,value
Mis12–Nnf1a–CENP-C^1–94 complex (from UniProt Q9VHP9 1-94),stoichiometry N,[1],2
B1,binding result,Nnf1a^122–147 peptide,binds
B2,stoichiometry N,[2],1
B3,stoichiometry N,6xHis::CENP-C^1–94,1
same,stoichiometry N,6xHis::Nsl1,1
B4,stoichiometry N,[3],2
B5,stoichiometry N,6xHis::Nnf1a,1
